In article PMC12167484, “Specific phosphoinositide interaction of Jps1 is a key feature during unconventional secretion in Ustilago maydis” (The Journal of Biological Chemistry, 2025):

Legend:
[1] = biological target: Hebeloma cylindrosporum Jps1, full-length recombinant (Hebeloma cylindrosporum); experiment: SEC-MALS; after SEC purification the sample was applied to a Superdex 200 10/30 column coupled to a miniDAWN TREOS light scattering detector and a refractive index detector; monomer to dimer
Cts1 = biological target: T1, Cts1 (Mycosarcoma maydis, UniProt A0A0D1DVM8); experiment: fluorogenic chitinase assay, intact cells or native extract; assay type: cell-based; conditions: KHM buffer (110 mM potassium acetate, 20 mM Hepes, 2 mM MgCl2), 25 °C
T1 construct: gene UMAG_10419; native Cts1, extracellular on intact U. maydis AB33 cells or in native cell extracts
T1 sequence (A0A0D1DVM8 1-502): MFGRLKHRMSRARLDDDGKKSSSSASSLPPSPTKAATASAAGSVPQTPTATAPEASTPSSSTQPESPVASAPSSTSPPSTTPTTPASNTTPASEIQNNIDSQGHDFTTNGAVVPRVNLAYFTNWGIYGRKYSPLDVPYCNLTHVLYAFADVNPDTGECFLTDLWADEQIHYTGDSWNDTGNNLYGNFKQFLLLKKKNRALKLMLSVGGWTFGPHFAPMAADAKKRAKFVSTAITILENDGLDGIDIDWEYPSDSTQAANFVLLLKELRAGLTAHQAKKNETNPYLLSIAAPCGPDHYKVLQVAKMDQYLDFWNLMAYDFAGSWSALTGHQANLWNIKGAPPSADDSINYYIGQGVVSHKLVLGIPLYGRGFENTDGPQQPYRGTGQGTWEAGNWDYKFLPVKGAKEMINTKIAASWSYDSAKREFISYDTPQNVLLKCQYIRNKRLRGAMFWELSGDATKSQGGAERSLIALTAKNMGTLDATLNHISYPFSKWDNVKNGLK

[2] = biological target: Sporisorium reilianum Jps1, full-length recombinant (Sporisorium reilianum); experiment: mass photometry; TwoMP mass photometer, protein at 10 nM in Hepes buffer, room temperature; monomer to dimer
[3] = biological target: Sporisorium reilianum Jps1, full-length recombinant (Sporisorium reilianum); experiment: SEC-MALS; after SEC purification the sample was applied to a Superdex 200 10/30 column coupled to a miniDAWN TREOS light scattering detector and a refractive index detector; monomer to dimer
HcJps1 = biological target: T2, HcJps1 (Hebeloma cylindrosporum, UniProt A0A0C3CFZ0); experiment: surface plasmon resonance, immobilised liposomes, steady-state affinity; assay type: binding; conditions: DOPC/PI(4,5)P2 liposomes (1 mM lipid) on LP chip, DOPC reference; 20 mM Hepes pH 7.5, 20 mM KCl, 200 mM NaCl; 0.2-6.4 μM protein
T2 construct: gene M413DRAFT_206302; full length, 287 residues; 6xHis-GB1 fusion made in E. coli (GB1 tag cleaved with TEV before SEC; codon-optimised gene for U. maydis)
T2 sequence (A0A0C3CFZ0 1-287): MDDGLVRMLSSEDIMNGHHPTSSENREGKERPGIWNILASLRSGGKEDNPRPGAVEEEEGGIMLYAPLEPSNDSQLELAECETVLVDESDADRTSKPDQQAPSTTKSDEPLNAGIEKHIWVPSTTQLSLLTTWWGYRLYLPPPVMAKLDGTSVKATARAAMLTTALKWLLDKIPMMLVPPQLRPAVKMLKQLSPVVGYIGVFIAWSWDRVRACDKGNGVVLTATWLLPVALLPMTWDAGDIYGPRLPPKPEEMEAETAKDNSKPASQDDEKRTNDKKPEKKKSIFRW

UmJps1 (Jps1^1-609) = biological target: T3, UmJps1 (Jps1^1-609) (Mycosarcoma maydis, UniProt A0A0D1C3B2); experiment: liposome co-sedimentation, SDS-PAGE; assay type: binding; conditions: DOPC:cholesterol:PIP 80:15:5 (with cholesterol); protein:lipid 1:5000; pH 7.5, room temperature
T3 construct: gene UMAG_03776; full length, 609 residues; 6xHis-Jps1 made in E. coli Rosetta(DE3) pLyS (pET22b, C-terminal His-tag in strip assay); homodimer 134 kDa
T3 sequence (A0A0D1C3B2 1-609): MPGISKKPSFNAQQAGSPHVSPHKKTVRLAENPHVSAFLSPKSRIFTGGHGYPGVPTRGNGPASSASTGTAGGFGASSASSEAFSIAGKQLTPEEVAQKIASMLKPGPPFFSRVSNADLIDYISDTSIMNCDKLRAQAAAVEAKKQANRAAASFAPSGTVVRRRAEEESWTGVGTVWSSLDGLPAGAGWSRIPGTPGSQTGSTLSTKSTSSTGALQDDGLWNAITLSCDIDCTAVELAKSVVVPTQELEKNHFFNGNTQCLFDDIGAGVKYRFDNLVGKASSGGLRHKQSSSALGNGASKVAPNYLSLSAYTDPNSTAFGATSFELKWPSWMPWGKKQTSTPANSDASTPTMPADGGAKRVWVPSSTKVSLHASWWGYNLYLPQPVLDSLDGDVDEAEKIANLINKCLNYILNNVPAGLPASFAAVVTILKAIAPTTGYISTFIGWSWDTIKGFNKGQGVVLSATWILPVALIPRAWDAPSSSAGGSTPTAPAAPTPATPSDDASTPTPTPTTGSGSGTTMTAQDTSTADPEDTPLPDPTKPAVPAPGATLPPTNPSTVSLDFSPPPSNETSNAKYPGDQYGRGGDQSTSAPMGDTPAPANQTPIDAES

[4] = biological target: Ustilago maydis Jps1^1-484 (lacking the unstructured C-terminus) (Ustilago maydis); experiment: SAXS; P12 beamline, batch mode, 10 °C, 0.6 mg/ml purified Jps1^1-484; rigid body modeling of the dimer with CORAL
[5] = biological target: Ustilago maydis Jps1^1-484 (lacking the unstructured C-terminus) (Ustilago maydis); experiment: SEC-MALS; after SEC purification the sample was applied to a Superdex 200 10/30 column coupled to a miniDAWN TREOS light scattering detector and a refractive index detector; monomer to dimer
[6] = biological target: Ustilago maydis Jps1, full-length recombinant (Jps1^1-609) (Ustilago maydis); experiment: mass photometry; TwoMP mass photometer, protein at 10 nM in Hepes buffer, room temperature; monomer to dimer
[7] = biological target: Ustilago maydis Jps1, full-length recombinant (Jps1^1-609) (Ustilago maydis); experiment: SEC-MALS; after SEC purification the sample was applied to a Superdex 200 10/30 column coupled to a miniDAWN TREOS light scattering detector and a refractive index detector; monomer to dimer

Compound: Hebeloma cylindrosporum Jps1, full-length recombinant (natural protein)
- stoichiometry N [1]: 2

Compound: CC(=O)N[C@H]1[C@H](Oc2ccc3c(C)cc(=O)oc3c2)O[C@H](CO)[C@@H](O[C@@H]2O[C@H](CO)[C@@H](O[C@@H]3O[C@H](CO)[C@@H](O)[C@H](O)[C@H]3NC(C)=O)[C@H](O)[C@H]2NC(C)=O)[C@@H]1O [MUC, 4-methylumbelliferyl-β-D-N, N′, N’’-triacetylchitotrioside]
- fluorogenic chitinase assay, intact cells or native extract (Cts1): MUC, a fluorogenic substrate 4-methylumbelliferyl-β-D-N, N′, N’’-triacetylchitotrioside

Compound: Sporisorium reilianum Jps1, full-length recombinant (natural protein)
- stoichiometry N [2]: 2
- stoichiometry N [3]: 2

Compound: PI(4,5)P2
- Kd (HcJps1): 900 nM
- % of input protein bound (UmJps1 (Jps1^1-609)): ~ 50%

Compound: Ustilago maydis Jps1^1-484 (lacking the unstructured C-terminus) (domain or fragment)
- stoichiometry N [4]: 2
- stoichiometry N [5]: 2

Compound: Ustilago maydis Jps1, full-length recombinant (Jps1^1-609) (natural protein)
- percent of particles in the dimer fraction [6]: 69%
- stoichiometry N [6]: 2
- stoichiometry N [7]: 2
